# Source: patent publication US20030163846A1, “Process for the genetic modification of a plant” (priority 2000, published 2003)
# B1: AtSUT4: saccharose transporter SUT4 from Arabidopsis thaliana, amino acid sequence SEQ ID no. 5 (protein, listed as Arabidopsis thaliana)
# chain: MATSDQDRRHRATRNRPPIPRPSNSSSRPVVPPPRSKVSKRVLLRVASVACGIQFGWALQLSLLTPYVQELGIPHAWASVIWLCGPLSGLFVQPLVGHSSDRCTSKYGRRRPFIVAGAVAISISVMVIGHAADIGWAFGDREGKIKPRAIVAFVLGFWILDVANNMTQGPCRALLADLTENDNRRTRVANGYFSLFMAVGNVLGYATGSYNGWYKIFTFTKTVACNVECANLKSAFYIDVVFIAITTILSVSAAHEVPLASLTSEAHGQTSGTDEAFLSEIFGTFRYFPGNVWIILLVTALTWIGWFPFILFDTDWMGREIYGGEPNIGTSYSAGVSMGALGLMLNSVFLGITSVLMEKLCRKWGAGFVWGISNILMAICFLGMIITSFVASHLGYIGHEQPPASIVFAAVLIFTILGIPLAITYSVPYALISIRIESLGLGQGLSLGVLNLAIVIPQVIVSVGSGPWDQLFGGGNSPALAVGAATGFIGGIVAILALPRTRIQKPIPLP
# Experiments:
# [1] = yeast growth on a saccharose medium (SUSY7/ura3); type: cell-based; conditions: 2% saccharose medium, pH 5.0
# Protocol: (§1) The yeast strain SUSY7/ura3 is a modified version of SUSY7 (Riesmeier et al., EMBO J. (1992) 11, 4705-4713), which contains a deletion of a portion of the URA3 gene and, as a result, permits selection for uracil auxotrophy. Media that contained the 1.7 g/L yeast nitrogen base without amino acids (Difco), 2% saccharose, 20 mg/L tryptophane, and 1.5% agarose, pH 5.0, were used to analyze yeast growth on a saccharose medium.
# (§2) For the saccharose uptake tests, yeast was cultivated in a liquid minimal medium containing glucose, up to an OD623 of approximately 0.8. Cells were collected by means of centrifugation, washed in 25 mM sodium phosphate buffer (pH 5.5), and suspended in the same buffer at an OD623 of 20. The uptake tests were initiated by adding glucose ending at a final concentration of 10 mM to the yeast cells one minute before adding ^14C-saccharose. Following incubation at 30° C. while stirring, cells were collected by means of vacuum filtration on fiberglass filters (1-5 minutes), washed twice with 4 mL 10 mM saccharose (at the freezing point), and the radioactivity was determined using a liquid scintillation counter. […] A significant difference compared with the vector controls is apparent.
# [2] = 14C-saccharose uptake tests in yeast expressing SUT4 (SUSY7/ura3); type: cell-based; conditions: for Km: Michaelis-Menten nonlinear regression
# Protocol: as §1, §2
# Data for the kinetic analysis were obtained for SUT4 from a nonlinear regression of the uptake measurements using the Michaelis-Menten equation. Km was represented as an average of eight determinations using three independent transformants±standard deviation. The KM value for saccharose that was determined was 11.6±0.6 mM (at a pH of 5.5) and 5.9±0.8 mM (at a pH of 4.0) for SUT4 from arabidopsis. For SUT4 from Solanum tuberosum the KM value was 6.0±1.2 mM (pH 4.0) (see FIG. 5B).
molecule,measurement,setting,value
B1,yeast growth on saccharose,[1],permitted yeast to grow on saccharose
same,functional saccharose transporter (uptake of 14C-saccharose vs vector controls),[2]; FIG. 5A,functional saccharose transporters
same,Km,"[2]; pH 4.0, average ± standard deviation",5.9 ± 0.8 mM
same,Km,"[2]; pH of 5.5, average of eight determinations ± standard deviation",11.6 ± 0.6 mM
